Positions count from the first letter of the chain named. Names may count otherwise.
B1: Cre recombinase monomer with R173L mutation (protein)
chain: MSNLLTVHQNLPALPVDATSDEVRKNLMDMFRDRQAFSEHTWKMLLSVCRSWAAWCKLNNRKWFPAEPEDVRDYLLYLQARGLAVKTIQQHLGQLNMLHRRSGLPRPSDSNAVSLVMRRIRKENVDAGERAKQALAFERTDFDQVRSLMENSDRCQDIRNLAFLGIAYNTLLLIAEIARIRVKDISRTDGGRMLIHIGRTKTLVSTAGVEKALSLGVTKLVERWISVSGVADDPNNYLFCRVRKNGVAAPSATSQLSTRALEGIFEATHRLIYGAKDDSGQRYLAWSGHSARVGAARDMARAGVSIPEIMQAGGWTNVNIVMNYIRNLDSETGAMVRLLEDGD
B2: Cre recombinase monomer with R173N mutation (protein)
chain: B1 chain with L173N
B3: Cre recombinase monomer with R173T mutation (protein)
chain: B1 chain with L173T
B4: Cre recombinase monomer with R173S mutation (protein)
chain: B1 chain with L173S

Columns and labels:
[1] = target: T1, Cre recombinase monomer with E176H mutation
T1 chain: B1 chain with L173R, E176H

[2] = target: T2, Cre recombinase monomer with K201F mutation
T2 chain: B1 chain with L173R, K201F

[3] = target: T3, Cre recombinase monomer with Q311R mutation
T3 chain: B1 chain with L173R, Q311R

[4] = target: T4, Cre recombinase monomer with W315M mutation
T4 chain: B1 chain with L173R, W315M

[5] = target: T5, Cre recombinase monomer with Y324N mutation
T5 chain: B1 chain with L173R, Y324N

[6] = target: T6, Cre recombinase monomer with R292W mutation
T6 chain: B1 chain with L173R, R292W

[7] = target: T7, Cre recombinase monomer with W315I mutation
T7 chain: B1 chain with L173R, W315I

[8] = target: T8, Cre recombinase monomer with Y324M mutation
T8 chain: B1 chain with L173R, Y324M

[9] = target: T9, Cre recombinase monomer with E176I mutation
T9 chain: B1 chain with L173R, E176I

[10] = target: T10, Cre recombinase monomer with E176V mutation
T10 chain: B1 chain with L173R, E176V

[11] = target: T11, Cre recombinase monomer with K201W mutation
T11 chain: B1 chain with L173R, K201W

[12] = target: T12, Cre recombinase monomer with Y324E mutation
T12 chain: B1 chain with L173R, Y324E

| Protein | Median dimer activity (recombination on loxP) [1] [%] | Median dimer activity (recombination on loxP) [2] [%] | Median dimer activity (recombination on loxP) [3] [%] | Median dimer activity (recombination on loxP) [4] [%] | Median dimer activity (recombination on loxP) [5] [%] | Median dimer activity (recombination on loxP) [6] [%] | Median dimer activity (recombination on loxP) [7] [%] | Median dimer activity (recombination on loxP) [8] [%] | Median dimer activity (recombination on loxP) [9] [%] | Median dimer activity (recombination on loxP) [10] [%] | Median dimer activity (recombination on loxP) [11] [%] | Median dimer activity (recombination on loxP) [12] [%] |
| --- | --- | --- | --- | --- | --- | --- | --- | --- | --- | --- | --- | --- |
| B1 | 66 | 41 | 94 | 63 | 88 |  |  |  |  |  |  |  |
| B2 |  |  | 96 |  |  | 44 | 38 | 51 |  |  |  |  |
| B3 | 56 |  | 92 |  |  |  |  |  | 72 | 65 | 91 |  |
| B4 |  |  | 97 |  |  |  |  |  |  | 49 |  | 59 |

Reference: patent publication US20230183713A1, “SITE-SPECIFIC RECOMBINASES FOR EFFICIENT AND SPECIFIC GENOME EDITING” (TECHNISCHE UNIVERSITÄt DRESDEN, published 2023)
